These results are taken from a protein production outcome set (Wang et al. 2014).
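Note: failed if final PepcDB status was selected cloned or expressed and not failed if soluble or beyond.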

This data set in a line: label from the status in PepcDB records.
For “MKKTWKVFLTLVTALVAVVLVACGQGTASKDNKEAELKKVDFILDWTPNTNHTGLYVAKEKGYFKEAGVDVDLKLPPEESSSDLVINGKAPFAVYFQDYMAKKLEKGAGITAVAAIVEHNTSGIISRKSDNVSSPKDLVGKKYGTWNDPTELAMLKTLVESQGGDFEKVEKVPNNDSNSITPIANGVFDTAWIYYGWDGILAKSQGVDANFMYLKDYVKEFDYYSPVIIANNDYLKDNKEEARKVIQAIKKGYQYAMEHPEEAADILIKNAPELKEKRDFVIESQKYLSKEYASDKEKWGQFDAARWNAFYKWDKENGILKEDLTDKGFTNEFVK”, the protein production result is reported as “failed”. Under “MEYGAICTPFIFVVYAKSKYLCVLISNEMGKNKLEKFADMASYPHVFEYPYSAVDNVPFDMKGKWHQEFFGNDHPIVLELGCGRGEYTVGLGRMFPDKNFIAVDIKGSRMWTGATESLQAGMKNVAFLRTNIEIIERFFAAGEVSEIWLTFSDPQMKKATKRLTSTYFMERYRKFLKPDGIIHLKTDSNFMFTYTKYMIEANQLPVEFITEDLYHSDLVDDILSIKTYYEQQWLDRGLNIKYIKFRLPQEGVLQEPDVEIELDPYRSYNRSKRSGLQTSK” stands “failed”. As to “MQVLHVCSEMFPLLKTGGLADVIGALPAAQIADGVDARVLLPAFPDIRRGVTDAQVVSRRDTFAGHITLLFGHYNGVGIYLIDAPHLYDRPGSPYHDTNLFAYTDNVLRFALLGWVGAEMASGLDPFWRPDVVHAHDWHAGLAPAYLAARGRPAKSVFTVHNLAYQGMFYAHHMNDIQLPWSFFNIHGLEFNGQISFLKAGLYYADHITAVSPTYAREITEPQFAYGMEGLLQQRHREGRLSGVLNGVDEKIWSPETDLLLASRYTRDTLEDKAENKRQLQIAMGLKVDDKVPLFAVVSRLTSQKGLDLVLEALPGLLEQGGQLALLGAGDPVLQEGFLAAAAEYPGQVGVQIGYHEAFSHRIMGGADVILVPSRFEPCGLTQLYGLKYGTLPLVRRTGGLADTVSDCSLENLADGVASGFVFEDSNAWSLLRAIRRAFVLWSRPSLWRFVQRQAMAMDFSWQVAAKSYRELYYRLK”, the protein production entry is “failed”.

As to “MSLHPNIQAVTDRIRKRSAPSRAAYLAGLDAALREGPFRSRLSCGNLAHGFAASEPGDKSRLRGAATPNLGIITAYNDMLSAHQPFEHYPQLIRETARTLGATAQVAGGVPAMCDGVTQGRAGMELSLFSRDNIAQATAIGLSHDMFDSVVYLGVCDKIVPGLLIGALAFGHLPAIFMPAGPMTPGIPNKQKAEVRERYAAGEATRAELLEAEASSYHSPGTCTFYGTANSNQVLLEAMGVQLPGASFVNPELPLRDALTREGTARALAISALGEDFRPFGRLIDERAIVNAVVALMATGGSTNHTIHWIAVARAAGIVLTWDDMDLISQTVPLLTRIYPNGEADVNRFQAAGGTAFVFRELMDAGYMHDDLPTVVEGGMRAYINEPRLQDGKVTYVPGTATTADDSVARPVGDAFESQGGLRLLRGNLGRSLIKLSAVKPQHRSIQAPAVVIDTPQVLNKLHAAGVLPHDFVVVLRYQGPRANGMPELHSMAPLLGLLQNQGRRVALVTDGRLSGASGKFPAAIHLTPEAARGGPIGRVREGDIVRLDGEAGTLEVLVSAEEWASREVAPNTSVAGNDLGRNLFAINRQVVGPADQGAISISCGPTHPDGALWSYDAEYELGADAAAAAAPHESKDA”, the protein production entry is recorded as “failed”. Under “MKIAVDAMGGDNAPQAIVEGVMLAKQDFPDIEFQLYGKEAEIKKYITDEKNITIIHTDEKIASDDEPVKAIRRKKTASMVLAAQAVKNGEADAIFSAGNTGALLAAGLFIVGRIKNVERPGLMSTLPVMGEPDKGFDMLDLGANADNKPEHLVQYAVLGSFYAEKVRNVQNPRVGLLNNGTEETKGSELTKKAFELLAADETINFVGNVEARELLNGVADVVVTDGFTGNAVLKSIEGTAMNMMSLLKTAILSEGVKGKMGALLLKNALHGMKDEMDYSKHGGAVLFGLKAPVIKTHGATGPDAVRYTIRQIHTMLETQVVPQLVEYYEGKAE” stands “not failed”; under “SESGFTSKDTYLSHFNPRDYLEKYYKFGSRHSAESQILKHLLKNLFKIFCLDGVKGDLLIDIGSGPTIYQLLSACESFKEIVVTDYSDQNLQELEKWLKKEPEAFDWSPVVTYVCDLEGNRVKGPEKEEKLRQAVKQVLKCDVTQSQPLGAVPLPPADCVLSTLCLDAACPDLPTYCRALRNLGSLLKPGGFLVIMDALKSSYYMIGEQKFSSLPLGREAVEAAVKEAGYTIEWFEVISQSYSSTMANNEGLFSLVARKLSRPL”, “failed”. Under “MEKSNVFLLSILLMASLFSISHAFQLWGYAIDRVSIRGVVYCSLDGDPSAPPVSNATVYIECPGGSNSTLAQAVTNQVGVFTLPWLMFIANYAIGASRQ” stands “failed”. As for “RIGIVVAAHGNSTASSMVQVVSQLLNVDNLKAVDMPLDMPPKEALRKIVEAVGEVNEENGVLLLVDMGSLSTFSEEIVRQTGIDVRTVDMVTTPIVLEAARKTALIDTQLETLHESLKNFHGYADIRQSETKQ”, the protein production result is “not failed”. Consider “MTQTVKLDILSDPICPWCYIGKTQLDKALAAIPDHPFVIEWHPFQLNPDMAPEGMDRREYLERKFGGKEGAVRAYAPVVEHAEKAGLAIDFEAMQRTPNTLDAHRLIHWAGVEGKQTEAVDALFAAYFTEGRDIGDAEVLADIADSIGMDAAVVLKLLKSDADRDDIAKRDSHSREMGVSSVPTFIVANQHAVPGAQPPELWEQVIREIMSQIETTSA”, for which the protein production entry is reported as “not failed”.

Consider “MSPGGLCDAPHMAVAPRVKPLDLFTPEEWTRISARSSWRGIWMVAHAWGVILAAGALFVAFPNPLTYVLAVMLIGARQLGLAILMHEAAHGGLHPKLKVNDWLGEWLCAAPVGASLASYRPYHLSHHKYAQQAEDPDLVLSAPFPTTRRSLRRKMIRDLTGQTFFKQRFGPLLGKMKGAKTTGQPKGAIFAGEIARQRPFLLWNLGILVVLSALGLWWAWPALWIVPMATWFPLVTRLRNIAEHALVAKDEPDPFRHARTTNANWIERALIAPYYVNFHAEHHMFMHTPCWNLPLAHRVLEKKGLTQGMLTAPGYLSVLKAASSKPVAA”, for which the protein production result is listed as “failed”.

Take “MKSRREQSIEEAIVANYLKMMIDNVNVWPRHFLRSEDVYCKNPWTLFVTRDPIILHFGRYFFVNRSVNSGLTDGCEYGCWRIIGRDRVIKSVTTGKILGLKKVYKFCETDRKPKSVFKFLEKEKRRVRDRRIWAMEEYRFASTWKQDYVICKIRRLYPQPFDYMLAQHIRGYYK”: the protein production entry is on record as “failed”.

Take “MDAPKAGYAFEYLIETLNDSSHKKFFDVSKLGTKYDVLPYSIRVLLEAAVRNCDGFLMKKEDVMNILDWKTKQSNVEVPFFPARVLLQDFTGIPAMVDFAAMREAVKTLGGDPEKVHPACPTDLTVDHSLQIDFSKCAIQNAPNPGGGDLQKAGKLSPLKVQPKKLPCRGQTTCRGSCDSGELGRNSGTFSSQIENTPILCPFHLQPVPEPETVLKNQEVEFGRNRERLQFFKWSSRVFKNVAVIPPGTGMAHQINLEYLSRVVFEEKDLLFPDSVVGTDSHITMVNGLGILGWGVGGIETEAVMLGLPVSLTLPEVVGCELTGSSNPFVTSIDVVLGITKHLRQVGVAGKFVEFFGSGVSQLSIVDRTTIANMCPEYGAILSFFPVDNVTLKHLEHTGFSKAKLESMETYLKAVKLFRNDQNSSGEPEYSQVIQINLNSIVPSVSGPKRPQDRVAVTDMKSDFQACLNEKVGFKGFQIAAEKQKDIVSIHYEGSEYKLSHGSVVIAAVISCTNNCNPSVMLAAGLLAKKAVEAGLRVKPYIRTSLSPGSGMVTHYLSSSGVLPYLSKLGFEIVGYGCSTCVGNTAPLSDAVLNAVKQGDLVTCGILSGNKNFEGRLCDCVRANYLASPPLVVAYAIAGTVNIDFQTEPLGTDPTGKNIYLHDIWPSREEVHRVEEEHVILSMFKALKDKIEMGNKRWNSLEAPDSVLFPWDLKSTYIRCPSFFDKLTKEPIALQAIENAHVLLYLGDSVTTDHISPAGSIARNSAAAKYLTNRGLTPREFNSYGARRGNDAVMTRGTFANIKLFNKFIGKPAPKTIHFPSGQTLDVFEAAELYQKEGIPLIILAGKKYGSGNSRDWAAKGPYLLGVKAVLAESYEKIHKDHLIGIGIAPLQFLPGENADSLGLSGRETFSLTFPEELSPGITLNIQTSTGKVFSVIASFEDDVEITLYKHGGLLNFVARKFS”: the protein production result is on record as “not failed”. Under “GYDHKKMGITAKGAWVGVQRHFRERDINVQQDSISVIGIGDMAGDVFGNGLLMSDKLQLVAAFNHLHIFIDPNPEPASSFAERERLFNLPRSSWTDYDTSIMSAGGGIFPRSLKSIAITEQMKARFDIKADKLTPTELLHALLKAPVDLLWNGGIGTYVKSSEESHADVGDKANDALRVDGNELRCKVVGEGGNLGMTQLGRVEFGLNGGATNTDFIDNAGGVDCSDHEVNIKILLNEVVQAGDMTEKQRNQLLESMTDEVGHLVLGNNYKQTQALSLAARRAYERIAEYKRLMSDLEARGKLD” stands “not failed”.

Consider “YYFKEYHLPYPKGVIFSGNIPPCFYHKSDPPLHLLPDKIFLEEVSKLGGIPGKIIKEKQFVEYFVPIIKNDFKLIENYYFQQKQEKFPVKSLICSGKDDKFRVKDLVQWENYFIDKCSISLFKGGHFYIDDNIASLCNQIKDFIY”, for which the protein production entry was “failed”. Next, “MSDFLQTTHLIIILCFLQQFLCTRMDIVIWLTCTTVPLSRRGRIGLGGSVILHVSDIHCSLRRLEDIISSLPVKPSTVAATGDFECEKAAVAIVEWSRREGVPLVAVTGNLDHAGVRRVLRSAGVLMDGRVDRVGGLVFGGVGGMDPRTSMEMLLRSLESSGLTVDVLLTHHPPHGVLDTTFAGVRAGLHDLRSLVDSLKPRAHLFGHIHESPGIESIGGTVFVNPGPAYEGRYALVRILGSVVKAELYTA”: “failed”; “MKKVILLGATSNISKYLIPRLLAKNDVELTLFARQATRRLHQYAAQSQVTLTNGNWNNSADLTAAIAGQDIVYLATGHFTTANQNVVDAMKQNGVERLIVAGGLGIYDEVAGKFGIWNAQMMGDYTEIKRAAAVIDNSGLNYTFLRMAWLYNNDQHTDYKVIPQGMPFKDTQVTRQAVADLITEIIHNPQLYQRSSIGVAEPNTAWNKPGFY”: “failed”; “MTEGGRVSNTSRVTRRTGLRTAAAVAAALPLLSASPASASRNRGRRLDVMTFNLRFASASEPHSWAVRRPVMRELLRRERPHVIGTQEGLYQQVRDIEADLGPHYDWIGTGRAGGSRDEFMAVFYDTRRLAPLEYDHFWLSDTPDVIGSNTWGGGSIRMVTRVRFRDLADGDRPFHFLNTHLDNASQYARARAAALIADRIAGLDRSQPLVVTGDFNAAAHKNAVYETMLGAGLVDTWDTAAERGKLYGTFHGYKPLVPDGDRIDWILASPGVAAHCASINAFSSNGQFPSDHLPVQASLRLA”: “failed”. In the case of “MKSLQIYLFLFLSVFALGACIQNDIPYPYIKGEITAFEVEGQTGDAEINKNSRTIVVEVGDEVDIEELRITRFVVNEEATYSIDEQYCVSPNKFPSAGFSALADLPAGADTRVDFSKTVPVLLRTYQDYQWMITVKQTIERVVEVENQALPAIIDDKNHTVLVYVSQKQDLSAVKITKMILGGSKATITPDPSTVTNFRRPQEFVVNRFDKEELWTVDVVRTTSTGTTGSADVWATRATLNGGMKQGTTPRVEYRKKSEDTWTVVPETDVKLESGTTFSTTLTGLQDGTDYVWRVVVEEVPSTESGFTTEKIQEIPNLNFDTWSQNPTGTFKKSWYPNADGSNSFWATGNDGVTSSLAGSRDSSTRPEEKSVVNGKAAYMVTLGSVPLVGVAAGNLFIGDYKTNAQSPLEHHHHHH”, the protein production entry was “failed”. For “MTTGVRRRMGVEERRQQLIGVALDLFSRRSPDEVSIDEIASAAGISRPLVYHYFPGKLSLYEAALQRASDDLADRFVEPRQGPLGARLLRVMGRYFDFVDEHGPGFSALMRGGPAVGSTTTNALVDSVRQAAYVQILSHLDVTEPPARLELVVRSWISLAESTALLWLDGRRIPRAELETQLVHDFAALMAVSAAYDEEMGALVRRVLADEPEDGPFGDLVDRLLALSAR”, the protein production entry was “not failed”.
